Two molecules from paper PMC6843132, “The Plant NF-Y DNA Matrix In Vitro and In Vivo” (Plants, 2019) can be followed below.

The assay has as its target T1, At NF-YB2/NF-YC3 histone fold domain (HFD) dimer (A. thaliana, UniProt Q9FGJ3 24-116; Q9ZVL3 55-148).
T1 construct: Nuclear factor Y subunit B2 (AtNF-YB2), Arabidopsis thaliana, aa 24-116, histone fold domain; Nuclear factor Y subunit C3 (AtNF-YC3), Arabidopsis thaliana, aa 55-148, histone fold domain; Preformed heterodimer; the 6His tag was removed with thrombin before gel filtration; also called AtNF-YB2/AtNF-YC3; HFD subunits; source: E. coli, co-expressed, purified (IMAC, thrombin cleavage, gel …)
T1 sequence (looked up) 1: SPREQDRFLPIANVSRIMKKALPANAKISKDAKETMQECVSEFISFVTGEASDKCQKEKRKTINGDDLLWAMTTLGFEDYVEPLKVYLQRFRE
T1 sequence (looked up) 2: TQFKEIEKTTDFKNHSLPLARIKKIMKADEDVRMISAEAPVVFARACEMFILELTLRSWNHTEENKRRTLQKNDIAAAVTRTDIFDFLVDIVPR
Put plainly: native gel or EMSA; NF-YA subunit (60-240 nM) with HFD dimer (30 nM) and Cy5-labelled 31 bp CAB2 CCAAT DNA probe (20 nM); 12 mM Tris-HCl pH 8.0, 50 mM NaCl, 50 mM KCl, 5 mM MgCl2, 30 °C 30 min; 6% polyacrylamide, 0.25X TBE; trimer read out as the shifted DNA complex. The note with it: both partners purified.

B1: AtNF-YA2-6His (aa 134-207) (domain or fragment)
chain: not shown
notes: Nuclear factor Y subunit A2 (AtNF-YA2), Arabidopsis thaliana, aa 134-207, evolutionarily conserved domain; source: E. coli, purified (IMAC); not shown: His6, C-terminal, kept
Turning to B1, the binding result was “binds”.

B2: AtNF-YA6-6His (aa 170-237) (domain or fragment)
chain: not shown
notes: Nuclear factor Y subunit A6 (AtNF-YA6), Arabidopsis thaliana, aa 170-237, evolutionarily conserved domain; source: E. coli, purified (IMAC); not shown: His6, C-terminal, kept
On to B2, for which the binding result is given as “binds”.
